From patent US20240124607A1 (Merck Sharp & Dohme, published 2024) come the findings set out here.

Substitutions are numbered along the chain they refer to.

What is called EC50 (read off the curve) is the concentration at which the effect is half-maximal. A word on the EC50: it is the concentration at which the effect is half-maximal. A lower EC50 goes with higher potency in that assay.

For one assay, the target named is T1, cynomolgus NKG2D-Fc (cynomolgus monkey, UniProt P61252 73-216).
T1 construct: extracellular domain
T1 sequence (looked up): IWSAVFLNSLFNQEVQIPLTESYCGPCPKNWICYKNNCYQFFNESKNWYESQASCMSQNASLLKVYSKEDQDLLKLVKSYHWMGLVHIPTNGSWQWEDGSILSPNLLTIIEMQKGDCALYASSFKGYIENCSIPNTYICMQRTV
As to the kind of experiment: ELISA on plate-adsorbed recombinant cynomolgus NKG2D-Fc, anti-human kappa-HRP, OD 450 nm. The text has this: (§1) The nucleic acid sequences of human, mouse or cynomolgus NKG2D ectodomains were fused with nucleic acid sequences encoding human IgG1 Fc domains and introduced into mammalian cells to be expressed. After purification, NKG2D-Fc fusion proteins were adsorbed to wells of microplates. After blocking the wells with bovine serum albumin to prevent non-specific binding, NKG2D-binding domains were titrated and added to the wells pre-adsorbed with NKG2D-Fc fusion proteins. Primary antibody binding was detected using a secondary antibody which was conjugated to horseradish peroxidase and specifically recognizes a human kappa light chain to avoid Fc cross-reactivity. 3,3′,5,5′-Tetramethylbenzidine (TMB), a substrate for horseradish peroxidase, was added to the wells to visualize the binding signal, whose absorbance was measured at 450 nm and corrected at […]. An NKG2D-binding domain clone, an isotype control or a positive control (comprising heavy chain and light chain variable domains selected from the group consisting of: SEQ ID NOs: 526-529, or anti-mouse NKG2D clones MI-6 and CX-5 available at eBioscience) was added to each well.
Background: In an ELISA, binding on a coated surface is turned into a signal by an enzyme label.

The target in assay [1] is T2, human NKG2D-Fc (human, UniProt P26718 73-216).
T2 construct: extracellular domain; also called recombinant human NKG2D-Fc; NKG2D-Fc-biotin
T2 sequence (looked up): T1 sequence (looked up) with N43D, I133T
Put plainly: ELISA on plate-adsorbed recombinant human NKG2D-Fc, anti-human kappa-HRP, OD 450 nm.
Source text: as §1

Assay [2] has as its target T3, mouse NKG2D-Fc (mouse, UniProt O54709 90-232).
T3 construct: extracellular domain; also called Mouse NKG2D-Fc-biotin
T3 sequence (looked up): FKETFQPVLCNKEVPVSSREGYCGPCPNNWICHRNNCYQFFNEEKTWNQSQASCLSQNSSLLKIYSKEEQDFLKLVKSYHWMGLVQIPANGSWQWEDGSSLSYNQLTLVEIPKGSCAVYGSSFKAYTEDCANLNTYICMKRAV
Put plainly: ELISA on plate-adsorbed recombinant mouse NKG2D-Fc, anti-human kappa-HRP, OD 450 nm.
Source text: as §1

The target in assay [3] is T2, human NKG2D-Fc. As to the kind of experiment: competition ELISA on plate-adsorbed human NKG2D-Fc; blocked ligand ULBP-6-His-biotin. On the procedure:
Recombinant human NKG2D-Fc proteins were adsorbed to wells of a microplate, and the wells were blocked with bovine serum albumin to reduce non-specific binding. A saturating concentration of ULBP-6-His-biotin was added to the wells, followed by addition of the NKG2D-binding domain clones. After a 2-hour incubation, wells were washed and ULBP-6-His-biotin that remained bound to the NKG2D-Fc coated wells was detected by streptavidin-conjugated to horseradish peroxidase and TMB substrate. Absorbance was measured at 450 nm and corrected at […]. After subtracting background, specific binding of NKG2D-binding domains to the NKG2D-Fc proteins was calculated from the percentage of ULBP-6-His-biotin that was blocked from binding to the NKG2D-Fc proteins in wells.

Assay [4] concerns the target T2, human NKG2D-Fc. As to the kind of experiment: competition ELISA: human NKG2D-Fc-biotin binding to plate-adsorbed MICA-Fc is blocked. As to the method: Recombinant human MICA-Fc proteins were adsorbed to wells of a microplate, and the wells were blocked with bovine serum albumin to reduce non-specific binding. NKG2D-Fc-biotin was added to wells followed by NKG2D-binding domains. After incubation and washing, NKG2D-Fc-biotin that remained bound to MICA-Fc coated wells was detected using streptavidin-HRP and TMB substrate. Absorbance was measured at 450 nm and corrected at […]. After subtracting background, specific binding of NKG2D-binding domains to the NKG2D-Fc proteins was calculated from the percentage of NKG2D-Fc-biotin that was blocked from binding to the MICA-Fc coated wells.

The target of assay [5] is T3, mouse NKG2D-Fc. As to the kind of experiment: competition ELISA: mouse NKG2D-Fc-biotin binding to plate-adsorbed Rae-1delta-Fc is blocked. As to the method:
Recombinant mouse Rae-1delta-Fc (purchased from R&D Systems) was adsorbed to wells of a microplate, and the wells were blocked with bovine serum albumin to reduce non-specific binding. Mouse NKG2D-Fc-biotin was added to the wells followed by NKG2D-binding domains. After incubation and washing, NKG2D-Fc-biotin that remained bound to Rae-1delta-Fc coated wells was detected using streptavidin-HRP and TMB substrate. Absorbance was measured at 450 nm and corrected at […]. After subtracting background, specific binding of NKG2D-binding domains to the NKG2D-Fc proteins was calculated from the percentage of NKG2D-Fc-biotin that was blocked from binding to the Rae-1delta-Fc coated wells.

For assay [6], the target named is T4, human CEACAM5 on cells (human, UniProt P06731 35-685).
T4 construct: tumour cell lines with endogenous CEACAM5, or B16F10 engineered to express hCEACAM5; also called CEACAM5 on MKN-45, HPAF-II, SK-CO-1, LoVo, BxPC-3, Kato-III, LS-174T, ZR-75-30; hCEACAM5-B16F10
T4 sequence: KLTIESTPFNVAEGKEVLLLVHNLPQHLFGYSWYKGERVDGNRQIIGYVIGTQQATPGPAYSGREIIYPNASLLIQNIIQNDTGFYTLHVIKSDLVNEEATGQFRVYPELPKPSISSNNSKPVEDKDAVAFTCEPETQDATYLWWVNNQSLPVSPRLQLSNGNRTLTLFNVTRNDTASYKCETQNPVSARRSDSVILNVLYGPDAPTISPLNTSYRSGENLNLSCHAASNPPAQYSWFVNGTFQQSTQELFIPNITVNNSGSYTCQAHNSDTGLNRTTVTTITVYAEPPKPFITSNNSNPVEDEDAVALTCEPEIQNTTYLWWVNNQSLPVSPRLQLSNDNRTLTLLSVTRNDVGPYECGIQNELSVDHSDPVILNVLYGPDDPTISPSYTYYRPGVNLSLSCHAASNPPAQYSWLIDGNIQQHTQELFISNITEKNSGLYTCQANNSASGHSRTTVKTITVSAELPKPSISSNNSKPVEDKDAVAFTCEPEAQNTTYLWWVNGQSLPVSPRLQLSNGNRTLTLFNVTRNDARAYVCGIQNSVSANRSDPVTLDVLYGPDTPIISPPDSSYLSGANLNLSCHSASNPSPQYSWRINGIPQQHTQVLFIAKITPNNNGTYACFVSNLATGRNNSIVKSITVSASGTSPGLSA
As to the kind of experiment: flow cytometry, MKN-45 cells; MKN-45 cells. For orientation: A flow cytometer gives signals particle by particle.

Assay [7] concerns the target T4, human CEACAM5 on cells. As to the kind of experiment: flow cytometry, Kato-III cells.
Assay [8] addresses T4, human CEACAM5 on cells. As to the kind of experiment: flow cytometry, LoVo cells.
Assay [9] addresses T4, human CEACAM5 on cells. As to the kind of experiment: flow cytometry, MKN-45 cells.
The target of assay [10] is T4, human CEACAM5 on cells. Put plainly: flow cytometry, SK-CO-1 cells.
Assay [11] has as its target T4, human CEACAM5 on cells. As to the kind of experiment: flow cytometry, BxPC-3 cells.

B1: ADI-27740 (antibody, V domains shown)
VH: QVQLQQWGAGLLKPSETLSLTCAVYGGSFSGYYWSWIRQPPGKGLEWIGEIDHSGSTNYNPSLKSRVTISVDTSKNQFSLKLSSVTAADTAVYYCARARGPWSFDPWGQGTLVTVSS
VL: DIQMTQSPSTLSASVGDRVTITCRASQSIGSWLAWYQQKPGKAPKLLIYKASSLESGVPSRFSGSGSGTEFTLTISSLQPDDFATYYCQQYHSFYTFGGGTKVEIK
notes: named as a single clone only on the drawing sheets; also called A40
In the case of B1, the results for the “EC50 (read off the curve)” value with cynomolgus NKG2D-Fc, with human NKG2D-Fc [1] and with mouse NKG2D-Fc [2] were approximately 0.3 nM, approximately 0.3 nM and approximately 0.2 nM, respectively. Further, the “IC50 (read off the curve)” value with human NKG2D-Fc [3] is approximately 6 nM.

B2: ADI-27743 (antibody, V domains shown)
VH: B1 VH
VL: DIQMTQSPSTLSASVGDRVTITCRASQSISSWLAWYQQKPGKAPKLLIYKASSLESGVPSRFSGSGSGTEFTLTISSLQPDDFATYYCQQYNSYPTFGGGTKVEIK
notes: named as a single clone only on the drawing sheets
In the case of B2, the entries for the “IC50 (read off the curve)” value with human NKG2D-Fc [4], with mouse NKG2D-Fc [5] and with human NKG2D-Fc [3] were approximately 20 nM, approximately 20 nM and approximately 3 nM, respectively. Besides, the concentration giving a half-maximal response (EC50 (read off the curve)) is approximately 0.3 nM in the assay with cynomolgus NKG2D-Fc, approximately 0.4 nM in the assay with human NKG2D-Fc [1] and approximately 0.2 nM with mouse NKG2D-Fc [2].

B3: AB0509 (antibody, V domains shown)
VH: QVQLVQSGGGLVQPGGSLRLSCAASGFTFTSYAMSWVRQAPGKGLEWVSAISGTGDSTFYADSVKGRFTFSRDNSKNTLYLQMNSLRAEDTAVYYCAKDLGWLQYGLFDYWGQGTLVTVSS
VL: DIQLTQSPATLSVSPGERATLSCRASQSVSSSYLAWYQQKPGQAPRLLIYGASSRATGIPDRFSGSGSGTDFTLTISRLEPEDFAVYYCQQYNNWPLTFGGGTKVEIK
notes: the scFv entries carry the stabilising cysteines, which the mAb may lack; also called mAb corresponding to AB0411
In the case of B3, the EC50 with human CEACAM5 on cells [6] was less than 9.05 nM; with human CEACAM5 on cells [7], 1.17 nM; with human CEACAM5 on cells [8] it was 3.25 nM; with human CEACAM5 on cells [10], 8.67 nM; with human CEACAM5 on cells [11], 4.28 nM. Also, the “Max FOB” value with human CEACAM5 on cells [7] is 5 fold over background; with human CEACAM5 on cells [8], 19 fold over background; with human CEACAM5 on cells [9], 107 fold over background; in the assay with human CEACAM5 on cells [10], 37 fold over background; with human CEACAM5 on cells [11] it was 19 fold over background.
